Six substances from patent US12428456B2, “Peptide directed protein knockdown” (University of British Columbia, priority 2012, dated 2025) can be followed below.

Assay [1] has as its target T1, α-synuclein (Homo sapiens, UniProt P37840).
T1 construct: expressed in transfected cells; host or cells: HEK293
The assay can be described thus: Knockdown of co-expressed α-synuclein in HEK cells (immunoblot). The settings on record: for effect on α-synuclein levels: co-expression at various ratios, 48 hours. In kind it is cell-based. Here is the method: Plasmid construction. CTS-GFP was constructed by introducing a BamHI fragment containing the CTS coding sequence into the pEGFP-N2 vector (Clontech #6081-1). The CTS coding sequence was prepared by annealing custom design oligonucleotides (Integrated DNA Technologies). mCTS-GFP was constructed by performing single point mutations to CTS-GFP plasmid. FLAG-βsyn36 was constructed by annealing oligonucleotides and inserting into pcDNA3.0 using HindIII and NotI restriction sites (HindIII, Fermentas, FD0504; NotI Fermentas, FD0594). FLAG-βsyn36-CTS was constructed by PCR using FLAG-βsyn36 as template and adding CTS coding sequence to the reverse primer. FLAG-cDAPK1 was constructed by deleting the autoinhibitory domain from WT-DAPK1 (789-936 bp). NR2Bct (1242-1342aa) was prepared by PCR using NR2B expression vector. NR2Bct-CTS fragment was obtained by inserting NR2Bct fragment into CTS-GFP using EcoRI and BglII restriction sites (EcoRI, Fermentas, FD0274; BglII, Fermentas, FD0084), then PCR, introducing NcoI and EcoRI to the fragment (NcoI, Fermentas, FD0574). His-TAT-NR2Bct-CTS was constructed by cloning NR2Bct-CTS into the pTAT/pTAT-HA plasmids (generous gift of S. Dowdy, Washington University, St. Louis, MO^31) using NcoI and EcoRI restriction sites. His-TAT-NR2Bct was constructed by mutating the first amino acid in CTS sequence into a stop codon. HA-NR2Bct-CTS was constructed by PCR using His-TAT-NR2Bct-CTS as template, with BamHI site in both forward and reverse primers, and then inserted into pcDNA3.0 with BamHI (Fermentas, FERFD0054). HA-NR2Bct-CTSm was constructed by point mutations.
(§1) Cell culture, transfection and treatments. HEK293 cells and COS7 cells were cultured in DMEM (Sigma, D6429-24X500ML) supplemented with 10% Fetal Bovine Serum (Invitrogen, 12483020). Cells were grown to 80% confluence in 6-well plates before transiently transfected with Lipofectamine 2000 (Invitrogen, 11668019), as according to the manufacturer's protocols. Cells were transfected for either 24 or 48 hours at 37° C. before harvesting for biochemical analyses. For experiments involving TAT or His-TAT peptides, unless otherwise specified, peptides were added 1 hour prior to NMDA insult.
(§2) Immunoblotting. Immunoblotting assays were carried out as previously described^36. Briefly, proteins were extracted from neurons using a lysis buffer composed of 150 mM NaCl, 50 mM Tris, pH 7.4, 0.1% SDS, 1% NP-40, 0.5% sodium deoxycholate, 1 mM EDTA, 1 mM Na3VO4, and proteinase inhibitor mixture (Thermo Fisher, PI78442). Samples were separated on 10% SDS-PAGE gels, transferred to polyvinylidene difluoride (PVDF) membrane, and immunoblotted with respective antibodies. Blots were enhanced with chemiluminescence detection reagent kit (Fisher, 32106) and visualized with Bio-Rad imager and Quantity One software. Signal intensities from each band was quantified with Bio-Rad Image Lab software, and the bands were analyzed relative to their controls from the same membrane and experiment.
On the technique in general: A western blot detects proteins with antibodies after separation by electrophoresis.

The target of assay [2] is T2, DAPK1 (Rattus norvegicus, UniProt F1LNN8).
T2 construct: decreased the level of endogenous DAPK1 in cultured cortical neurons following NMDA treatment; endogenous in cells; host or cells: primary rat cortical neurons (E18, 14-18 DIV)
Briefly: Knockdown of native DAPK1 in cultured cortical neurons, NMDA stimulation (immunoblot). Type of assay: cell-based. Particulars: for reduction of activated DAPK1 on application alone: NR2B-CTS or Pep-1 alone; for levels of endogenous DAPK1 reduced by: with Pep-1 (1:4); for levels of endogenous DAPK1 reduced by / effect on DAPK1 in cytosolic fraction / effect on DAPK1 in mitochondrial fraction / effect on DAPK1 in nuclear fraction: 2 hours after washout; for effect on DAPK1 in cytosolic fraction / effect on DAPK1 in mitochondrial fraction / effect on DAPK1 in nuclear fraction: 1 hr prior to and during NMDA. Here is the method: as §1
(§3) Primary culture of cortical neurons. Dissociated cultures of rat cortical neurons were prepared from Sprague Dawley rat embryos collected from euthanized mothers 18 days after fertilization as previously described^35. Briefly, hippocampi and cerebral cortices were extracted from embryos and incubated for 30 min in 0.25% trypsin-EDTA. Digested tissues were dissociated by trituration and plated on poly-D-lysine-coated (Sigma, P7280) plates. Plating medium consisted of Neurobasal Media (Invitrogen, 21103-049) supplemented with B27 (Invitrogen, 17504044), glutamic acid (Sigma, G8415) and GlutaMax (Invitrogen, 35050-061). After 2 days, 2/3 of the media was replaced with fresh Neurobasal feeding media consisting of Neurobasal Media, B27 and GlutaMax. Cultures were maintained at 37° C. in a humidified 5% CO2 atmosphere. Mature neurons (14-18 days in vitro (DIV)) were used for experiments.
as §2
Cellular fractionation. Cytoplasm/nuclei fractionation was performed on cultured cortical neurons (6.0*10^6 cells/100 mm dish). Briefly, cells were washed with ice cold PBS and rocked in lysis buffer for 30 min. Cells were then collected and centrifuged to obtain a rough cytoplasmic and nuclear fraction. Supernatant was collected and further centrifuged to obtain purified cytosolic fraction. The original pellet was washed and vortexed to obtain a nuclear lysis. Mitochondrial fractionation was performed as described in the Pierce Mitochondria Isolation Kit for Cultured Cells (Thermo Scientific, 89874) user guide. Purity was assessed by immunoblotting for the presence of LB1 (nucleus only), HSP90 (cytosol only) and VDAC1 (mitochondria only).

For assay [3], the target named is T3, α-synuclein (Rattus norvegicus, UniProt P37377).
T3 construct: endogenous in cells; host or cells: primary rat neurons
The assay can be described thus: Degradation of endogenous α-synuclein in cultured neurons (immunoblot). In kind it is cell-based. Here is the method: as §3, §2

The target of assay [4] is T4, PSD95 (Rattus norvegicus, UniProt P31016).
T4 construct: endogenous in cells; host or cells: primary rat neurons
The assay can be described thus: Degradation of endogenous PSD95 in cultured neurons (immunoblot). In kind it is cell-based. The settings on record: 25 μM bath applied. Here is the method:
as §3, §2

Assay [5] deals with T2, DAPK1. Briefly: DAPK1 knockdown in brain, rat MCAO focal ischemia model (immunoblot, immunohistochemistry). Type of assay: in vivo. The settings on record: 10 mg/kg i.v. Here is the method: as §2
Middle cerebral arterial occlusion (MCAO). All animal experiments were performed according to protocols approved by the University of British Columbia Committee on Animal Care. Adult naïve male Sprague-Dawley rats (300-350 g, Charles River) were group housed (3-4 animals/cage) in 12 hr:12 hr light-dark cycles and had free access to rat pellet chow and water prior to surgery. Reversible MCAO with suture-insertion method was performed as described previously^37. Briefly, a nylon suture with a blunted tip was entered through the right external carotid artery of anesthetized rats and advanced to the right internal carotid artery until the right MCA was occluded. After 60 min of occlusion, the rat was reanesthetized to facilitate the removal of the occlusion. Body temperature was maintained at between 36.5 and 37.5° C. throughout the surgical procedure with a heating pad. Peptides (10 mg/kg) or vehicle control (saline; 1 ml/kg) was injected via the jugular vein. Rats were then sewn up and allowed to recover until tissue collection.
Immunohistochemistry. Rats were anesthetized and perfused with double-filtered saline and 4% paraformaldehyde (PFA) in PBS. Brains were collected, immersed in 4% PFA before subjected to cryoprotection by 30% sucrose/PBS. After the brains had sunk, they were flash frozen with dry ice before overnight freezing in −80° C. They were then sliced at […] with a cryostat, and stored in 0.1 μM PB (sodium phosphate dibasic and sodium phosphate monobasic). Prior to staining, slices were washed 3×10 min with 0.1 μM PB, permeablized and blocked in 0.1 μM PB with 1% BSA and 0.2% Triton X-100 for 30 min, and stained with anti-DAPK1 (1:100) at 4° C. for 3 days. They were then washed and stained with Alexa 488 (1:1000) at 4° C. overnight before washing and mounting.

Entries after “also recorded” stand apart in the source; their conditions may differ. No end group written: not given here.

T2 sequence (F1LNN8 1-1430): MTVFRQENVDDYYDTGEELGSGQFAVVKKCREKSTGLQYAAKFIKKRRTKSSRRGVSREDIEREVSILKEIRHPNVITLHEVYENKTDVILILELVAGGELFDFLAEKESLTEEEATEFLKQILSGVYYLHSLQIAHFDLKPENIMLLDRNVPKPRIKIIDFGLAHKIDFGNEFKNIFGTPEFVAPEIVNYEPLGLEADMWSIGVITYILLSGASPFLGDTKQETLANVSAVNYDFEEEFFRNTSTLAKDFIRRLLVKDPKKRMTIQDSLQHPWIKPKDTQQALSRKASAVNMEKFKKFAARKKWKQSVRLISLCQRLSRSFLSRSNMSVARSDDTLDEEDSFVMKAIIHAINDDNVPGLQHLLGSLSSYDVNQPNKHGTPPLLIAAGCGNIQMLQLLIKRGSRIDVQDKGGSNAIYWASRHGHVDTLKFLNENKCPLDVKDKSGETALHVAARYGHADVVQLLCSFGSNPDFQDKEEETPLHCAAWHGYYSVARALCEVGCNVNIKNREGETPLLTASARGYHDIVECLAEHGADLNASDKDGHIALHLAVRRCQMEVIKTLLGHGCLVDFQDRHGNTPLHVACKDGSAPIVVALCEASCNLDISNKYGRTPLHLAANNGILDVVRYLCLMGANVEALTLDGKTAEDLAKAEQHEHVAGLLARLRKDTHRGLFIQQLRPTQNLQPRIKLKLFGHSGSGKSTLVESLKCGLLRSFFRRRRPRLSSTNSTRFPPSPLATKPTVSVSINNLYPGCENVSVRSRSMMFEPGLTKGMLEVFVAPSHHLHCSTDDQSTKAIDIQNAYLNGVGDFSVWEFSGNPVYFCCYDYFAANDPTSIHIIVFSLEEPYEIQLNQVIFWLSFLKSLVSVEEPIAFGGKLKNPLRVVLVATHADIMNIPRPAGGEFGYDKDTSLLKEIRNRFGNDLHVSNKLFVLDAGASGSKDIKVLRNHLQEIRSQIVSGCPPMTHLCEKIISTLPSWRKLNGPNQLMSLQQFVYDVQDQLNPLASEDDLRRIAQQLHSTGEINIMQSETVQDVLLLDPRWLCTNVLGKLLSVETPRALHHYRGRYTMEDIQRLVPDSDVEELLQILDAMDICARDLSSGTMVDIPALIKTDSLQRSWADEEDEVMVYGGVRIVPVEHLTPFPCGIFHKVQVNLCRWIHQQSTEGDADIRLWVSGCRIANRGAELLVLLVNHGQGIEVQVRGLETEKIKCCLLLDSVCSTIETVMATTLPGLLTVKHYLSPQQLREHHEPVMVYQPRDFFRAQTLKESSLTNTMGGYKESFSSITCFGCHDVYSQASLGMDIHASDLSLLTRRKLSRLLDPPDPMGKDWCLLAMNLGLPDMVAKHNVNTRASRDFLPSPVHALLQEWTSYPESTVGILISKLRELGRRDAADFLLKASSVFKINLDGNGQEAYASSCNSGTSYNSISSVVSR
T4 sequence (P31016 whole entry): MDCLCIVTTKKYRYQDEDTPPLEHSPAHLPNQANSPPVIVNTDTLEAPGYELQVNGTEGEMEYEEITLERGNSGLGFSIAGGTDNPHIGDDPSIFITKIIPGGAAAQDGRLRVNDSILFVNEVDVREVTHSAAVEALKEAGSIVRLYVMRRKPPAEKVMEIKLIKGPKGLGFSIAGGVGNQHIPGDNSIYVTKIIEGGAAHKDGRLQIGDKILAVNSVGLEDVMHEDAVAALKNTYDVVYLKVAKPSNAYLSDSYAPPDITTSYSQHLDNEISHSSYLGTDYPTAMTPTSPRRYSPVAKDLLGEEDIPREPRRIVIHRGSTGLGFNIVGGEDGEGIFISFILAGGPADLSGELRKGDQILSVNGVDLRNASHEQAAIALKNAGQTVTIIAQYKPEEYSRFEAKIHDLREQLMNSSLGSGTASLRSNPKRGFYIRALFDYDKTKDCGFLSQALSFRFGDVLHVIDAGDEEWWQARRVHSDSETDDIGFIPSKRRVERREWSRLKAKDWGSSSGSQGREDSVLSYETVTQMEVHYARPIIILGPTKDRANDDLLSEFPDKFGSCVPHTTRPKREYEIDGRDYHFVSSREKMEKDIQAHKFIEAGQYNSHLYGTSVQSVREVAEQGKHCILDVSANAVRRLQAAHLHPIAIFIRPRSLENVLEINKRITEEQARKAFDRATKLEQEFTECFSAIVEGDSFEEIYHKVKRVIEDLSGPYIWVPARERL

In the case of “FLAG-βsyn36-CTS: expressed FLAG-tagged peptide of β-synuclein 36-45 and CTS (untagged: SEQ ID NO:1 GVLYVGSKTRKFERQKILDQRFFE) ({FLAG}-GVLYVGSKTRKFERQKILDQRFFE)”, the “effect of lysosome inhibitor on peptide-induced α-synuclein reduction” value in assay [1] (+NH4Cl 20 mM) is on record as “completely rescued; also recorded: prevented”. In addition, the “effect on α-synuclein levels” value is on record as “significantly decreased α-synuclein levels in a dose-dependent manner” in assay [1] and “constitutively reduced α-synuclein in a dose-dependent manner” in assay [1] (listed as βsyn36-CTS). Also, the “α-synuclein reduced by, of control α-synuclein levels” value in assay [1] (co-expression ratio 2:1, 48 hours) is on record as 42.89%±11.34%; in assay [1] (co-expression ratio 4:1, 48 hours), 46.49%±5.72%; in assay [1] (co-expression ratio 8:1, 48 hours) it was 52.18%±6.61%; in assay [1] (co-expression ratio peptide:α-synuclein 1:1, 48 hours), 32.40%±7.14%.

Turning to “FLAG-βsyn36: expressed FLAG-tagged β-synuclein 36-45 peptide without CTS ({FLAG}-GVLYVGSKTR; UniProt Q16143 36-45, looked up, fragment) [reference compound]”, in assay [1], the “effect on α-synuclein levels” value is “did not significantly affect”.

With “KETWWETWWTEWSQPKKKRKV [Pep-1, short amphipathic intracellular delivering carrier peptide, reference compound]”, the “reduction of activated DAPK1 on application alone” value in assay [2] (NMDA) is reported as “not produced”.

Consider “KKNRNKLRRQHSYKFERQKILDQRFFE (Knockdown peptide targeting DAPK1, without TAT protein transduction domain) [NR2B-CTS, synthetic DAPK1 degradation targeting peptide without TAT, delivered with Pep-1]”, for which the “levels of endogenous DAPK1 reduced by” value in assay [2] (10 μM, NMDA) came to 33.60±14.48%; in assay [2] (25 μM, NMDA), 43.65±2.05%; in assay [2] (50 μM, NMDA) it was 63.88±6.18%. Besides, in assay [2] (NMDA), the “reduction of activated DAPK1 on application alone” value was “not produced”. Besides, the “effect on DAPK1 levels in non-NMDA treated neurons” value in assay [2] (delivered by Pep-1, no NMDA) was “did not affect DAPK1 levels”. Further, the DAPK1 decrease in assay [2] (with Pep-1, 1 hour following NMDA and peptide washout) is 58.27±5.48%. The “DAPK1 decrease (maximum level)” value in assay [2] (with Pep-1, 2 hours after washout) is 78.79±1.15%. In addition, in assay [2] (with Pep-1, NMDA, +NH4Cl 20 mM), the “effect of NH4Cl on DAPK1 reduction” value is “fully rescued”.

Take “YGRKKRRQRRRGVLYVGSKTRKFERQKILDQRFFE (Knockdown peptide targeting alpha-synuclein, with TAT protein transduction domain) [TAT-βsyn-CTM, synthetic cell-penetrating α-synuclein targeting peptide]”: the “effect on endogenous α-synuclein level” value in assay [3] (25 μM bath applied, 4 hours) is “significantly degraded native α-synuclein; also recorded: specifically decreased the targeted endogenous α-synuclein”. Also, the “effect of 3-methyladenine on α-synuclein reduction” value in assay [3] (25 μM, +3-MA 10 mM) is listed as “not by inhibition of macroautophagy with 3-methyladenine; also recorded: significantly decreased native α-synuclein in the presence of 3-MA”. The “effect of NH4Cl on α-synuclein reduction” value in assay [3] (25 μM, +NH4Cl 20 mM) was “rescued; also recorded: prevented”. Besides, the “effect on endogenous PSD95 level” value in assay [4] is “without affecting the non-intended target PSD95; also recorded: without affecting the level of unrelated control proteins PSD-95”.

In the case of “YGRKKRRQRRRKKNRNKLRRQHSYKFERQKILDQRFFE (Knockdown peptide targeting DAPK1, with TAT protein transduction domain) [TAT-NR2B-CTS]”, the “level of DAPK1 in ischemic side, of that on the contralateral side” value in assay [5] (1 hour following reperfusion, 60 min MCAO) came out at 43.3%. The “region specificity of DAPK1 knockdown (immunohistochemistry)” value in assay [5] (brain sections, listed as TAT-NR2BCTM) was “specific to stroke-damaged areas; also recorded: selectively reduced the level of DAPK1”. The “effect on DAPK1 levels in brain tissues (immunoblot)” value in assay [5] (ischemic vs contralateral side, listed as TAT-NR2BCTM) is reported as “significant reduction in DAPK1 levels only in the ischemic side of the brain; also recorded: specific knockdown of DAPK1 only in tissues collected from the infract side”. Further, in assay [2] (25 μM peptide, NMDA, Lamp2a siRNA 60 pmol 3 days), the “effect of siRNA-mediated Lamp2a knockdown on DAPK1 knockdown” value is “inhibition of TAT-NR2BCTM induced knockdown of DAPK1”. Besides, in assay [2] (25 μM), the “effect on DAPK1 in cytosolic fraction” value is “reduced the levels of DAPK1”, the “effect on DAPK1 in mitochondrial fraction” value is given as “reduced the levels of DAPK1” and the “effect on DAPK1 in nuclear fraction” value is on record as “reduced the levels of DAPK1”. In assay [2] (25 μM, listed as TAT-NR2BCTM), the “effect on DAPK1 in cytosolic fraction” value is “significantly decreased DAPK1”, the “effect on DAPK1 in mitochondrial fraction” value is listed as “significantly decreased DAPK1” and the “effect on DAPK1 in nuclear fraction” value is “significantly decreased DAPK1”. In addition, the “effect of macroautophagy inhibitor on DAPK1 knockdown” value in assay [2] (NMDA, +3-MA) is given as “did not alter”. The “effect of lysosomal inhibitor on DAPK1 reduction” value in assay [2] (synthetic peptide 25 μM, NMDA, +NH4Cl 20 mM) is given as “rescued; also recorded: prevented”. The “effect on DAPK1 level after NMDA treatment” value in assay [2] (synthetic peptide 25 μM, prior to and during NMDA) was “significant reduction of DAPK1; also recorded: decreased native DAPK1”.
